Data set [1] addresses T1, rabbit serum albumin, P49065.
T1 chain: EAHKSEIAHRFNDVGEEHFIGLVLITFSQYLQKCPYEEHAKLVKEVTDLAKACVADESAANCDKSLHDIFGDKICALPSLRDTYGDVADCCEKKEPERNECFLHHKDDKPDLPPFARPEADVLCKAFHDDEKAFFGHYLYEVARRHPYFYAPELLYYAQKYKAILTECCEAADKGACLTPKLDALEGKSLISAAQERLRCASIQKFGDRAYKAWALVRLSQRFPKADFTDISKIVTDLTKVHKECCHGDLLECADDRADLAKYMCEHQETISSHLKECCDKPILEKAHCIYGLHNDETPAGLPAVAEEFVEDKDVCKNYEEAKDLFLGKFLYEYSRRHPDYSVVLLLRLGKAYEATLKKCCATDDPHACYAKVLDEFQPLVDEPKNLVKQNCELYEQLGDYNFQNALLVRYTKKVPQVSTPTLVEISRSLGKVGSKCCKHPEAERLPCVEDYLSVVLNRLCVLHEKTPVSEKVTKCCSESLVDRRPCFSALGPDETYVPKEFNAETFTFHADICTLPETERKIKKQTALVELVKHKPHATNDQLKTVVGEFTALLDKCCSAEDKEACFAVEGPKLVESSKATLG

B1: PlySs2 (CF-301) lysin (protein)
chain: MTTVNEALNNVRAQVGSGVSVGNGECYALASWYERMISPDATVGLGAGVGWVSGAIGDTISAKNIGSSYNWQANGWTVSTSGPFKAGQIVTLGATPGNPYGHVVIVEAVDGDRLTILEQNYGGKRYPVRNYYSAASYRQQVVHYITPPGTVAQSAPNLAGSRSYRETGTMTVTVDALNVRRAPNTSGEIVAVYKRGESFDYDTVIIDVNGYVWVSYIGGSGKRNYVATGATKDGKRFGNAWGTFK
For B1, in the data set with human serum albumin, the Fold decrease in CF-301 MIC compared to media alone (delipidated human serum + Oleate 0.625 mg/mL) was found to be 8 fold; the Fold decrease in CF-301 MIC compared to media alone (delipidated human serum + Palmitate 0.625 mg/mL) was 16 fold; the Fold decrease in CF-301 MIC compared to media alone (delipidated human serum + Palmitate + Oleate) is 16 fold; the Fold decrease in MIC (50% MHB/50% heat-inactivated human serum supplemented with HSA, 40 mg/mL) was 4 fold. In the data set with human serum albumin, the Fold decrease in MIC (MHB supplemented with HSA, 40 mg/mL) was determined as 8 fold; the Fold increase in CF-301 specific activity with rHSA, 4% came to 17.8 fold; the Specific Activity (Units/mg) of CF-301 in the lytic assay with rHSA, 4% is 43100 Units/mg; the “ΣFICavg (checkerboard, S. aureus, heat-inactivated human serum); HSA fraction V” value is listed as at most 0.086. In addition, the “ΣFICavg (checkerboard, S. aureus, heat-inactivated human serum); HSA recombinant” value with human serum albumin is listed as at most 0.1. In addition, in data set [1], the Fold decrease in MIC (50% MHB/50% heat-inactivated human serum supplemented with RabSA, 40 mg/mL) stood at 4 fold; the Fold decrease in MIC (MHB supplemented with RabSA, 40 mg/mL) worked out at 8 fold; the “ΣFICavg (checkerboard, S. aureus, heat-inactivated human serum); rabbit serum albumin from serum” value is given as at most 0.1.
